The text below walks through data of article PMC11642994, “AGC family kinase of Entamoeba histolytica: Decoding the members biochemically” (PLOS Pathogens, 2024).

Substrate in data set [1]: Nc1ncnc2c1ncn2[C@@H]1O[C@H](COP(=O)(O)OP(=O)(O)OP(=O)(O)O)[C@@H](O)[C@H]1O
The data set can be described thus: ADP-Glo luminescent kinase assay with 0-1000 uM ATP, 50 uM EhCoactosin peptide as co-substrate and 20 uM kinase, pH 7.5, 30 °C, Michaelis-Menten fit. The data set is classed as biochemical. How it is done:
(§1) Fig 6 Graphs representing the Michaelis-Menten kinetics of EhAGCK1 and EhAGCK2. Panel A-D represents the Km and Vmax for peptide substrates, assays were performed in the presence of 20 μM EhAGCK1 (WT and KDD1) and EhAGCK2 (WT and KDD2) proteins were assayed in the presence of 250 μM ATP and serial dilutions (0 μM to 200 μM) of EhRhoGEF, EhCoactosin, and HsGSK3 peptide substrates. […] Panel E-H represents the Km and Vmax for ATP, assays were assessed in the presence of 50 μM peptide substrates (EhRhoGEF, EhCoactosin, and HsGSK3), serial dilution(0 μM to 1000 μM) of ATP, and 20 μM of the proteins EhAGCK1 (WT, and KDD1) and EhAGCK2 (WT, and KDD2). […] Relative luminescence unit (RLU) values are converted to μM/min using the method described in the Materials and Methods section. […]
(§2) Further, we determined the Km and Vmax values for ATP as it serves a vital metabolic molecule and substrate crucial for kinase activity, determining ATP Km and Vmax a key biochemical parameters for all kinases. […] Additionally, we compared previously determined Km and Vmax values of human Akt proteins in the presence of GSK3 peptide with our kinase protein results, which are presented in Table 1.
(§3) The phosphorylation activity of kinases was measured using the ADP-Glo kinase assay kit according to the manufacturer’s protocol with few modifications (Promega, Madison, WI, Catalogue number V6930). […]
(ADP-Glo turns the ADP formed in a reaction into a luminescent signal.)

Substrate in data set [2]: Nc1ncnc2c1ncn2[C@@H]1O[C@H](COP(=O)(O)OP(=O)(O)OP(=O)(O)O)[C@@H](O)[C@H]1O
In words: ADP-Glo luminescent kinase assay with 0-1000 uM ATP, 50 uM HsGSK3 peptide (GRPRTTSFAESCK) as co-substrate and 20 uM kinase, pH 7.5, 30 °C, Michaelis-Menten fit. Format: biochemical. The procedure:
as §1, §2, §3

Data set [3] concerns the target T1, EhAGCK2 WT (Entamoeba histolytica AGC family kinase 2, EHI_053040), full-length recombinant His-tagged protein (Entamoeba histolytica, UniProt C4M3C2 1-434).
T1 construct: source: E. coli C41(DE3), purified (Ni2+-NTA)
T1 sequence: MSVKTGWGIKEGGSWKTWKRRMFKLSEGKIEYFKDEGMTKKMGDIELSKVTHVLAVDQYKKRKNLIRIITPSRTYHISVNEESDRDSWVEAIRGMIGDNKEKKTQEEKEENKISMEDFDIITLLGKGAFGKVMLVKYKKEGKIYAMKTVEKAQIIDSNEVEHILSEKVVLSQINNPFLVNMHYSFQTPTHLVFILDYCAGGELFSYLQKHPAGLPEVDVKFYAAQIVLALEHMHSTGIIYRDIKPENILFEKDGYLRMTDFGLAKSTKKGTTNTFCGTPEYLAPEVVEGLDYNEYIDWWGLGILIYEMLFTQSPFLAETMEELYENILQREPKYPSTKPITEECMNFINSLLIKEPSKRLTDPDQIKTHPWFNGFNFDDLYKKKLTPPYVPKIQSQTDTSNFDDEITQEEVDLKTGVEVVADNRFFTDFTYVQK
In words: MST; His-tagged kinase labelled with RED-tris-NTA 2nd Generation dye, kept constant (50 nM by the legend); unlabelled peptide in 16 1:1 dilutions, 500 uM to 153 nM as printed; 50 mM Tris-Cl pH 8, 150 mM NaCl, 1 mM beta-ME, 5% glycerol; 25 C; Monolith NT.115, 50% LED, medium MST power. The conditions noted are these: both partners purified.

For data set [4], the target named is T2, KDD1, kinase-dead EhAGCK1 (K147A and D241A) (Entamoeba histolytica, UniProt C4M2W0 1-433, K147A | D241A).
T2 construct: source: E. coli C41(DE3), purified (Ni2+-NTA)
T2 sequence: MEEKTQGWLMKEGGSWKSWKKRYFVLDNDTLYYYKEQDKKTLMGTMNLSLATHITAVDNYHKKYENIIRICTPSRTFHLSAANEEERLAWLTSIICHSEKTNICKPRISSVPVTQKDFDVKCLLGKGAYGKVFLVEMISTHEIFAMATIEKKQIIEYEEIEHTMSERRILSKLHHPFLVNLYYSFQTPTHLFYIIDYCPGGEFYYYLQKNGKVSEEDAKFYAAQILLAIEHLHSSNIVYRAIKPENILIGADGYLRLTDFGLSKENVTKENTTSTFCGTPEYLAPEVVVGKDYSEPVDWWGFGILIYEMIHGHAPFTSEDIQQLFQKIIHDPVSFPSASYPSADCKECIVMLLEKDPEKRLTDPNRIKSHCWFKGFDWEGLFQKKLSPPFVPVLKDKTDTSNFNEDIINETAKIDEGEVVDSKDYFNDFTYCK
Described as above. The conditions noted are these: both partners purified.

Data set [5] has as its target T3, EhAGCK1 WT (Entamoeba histolytica AGC family kinase 1, EHI_188930), full-length recombinant His-tagged protein (Entamoeba histolytica, UniProt C4M2W0 1-433).
T3 construct: also called His-EhAGCK1; source: E. coli C41(DE3), purified (Ni2+-NTA)
T3 sequence: T2 sequence with A147K, A241D
The description is as above. The conditions noted are these: both partners purified.

The target in data set [6] is T4, KDD2, kinase-dead EhAGCK2 (K147A and D242A) (Entamoeba histolytica, UniProt C4M3C2 1-434, K147A | D242A).
T4 construct: source: E. coli C41(DE3), purified (Ni2+-NTA)
T4 sequence: T1 sequence with K147A, D242A
Described as above. The conditions noted are these: both partners purified.

Substrate in data set [7]: Nc1ncnc2c1ncn2[C@@H]1O[C@H](COP(=O)(O)OP(=O)(O)OP(=O)(O)O)[C@@H](O)[C@H]1O
The data set can be described thus: ADP-Glo luminescent kinase assay with 0-1000 uM ATP, 50 uM EhRhoGEF peptide as co-substrate and 20 uM kinase, pH 7.5, 30 °C, Michaelis-Menten fit. Format: biochemical. How it is done:
as §1, §2, §3

Where a chain is given by its changes, count along the chain named.

B1: EhAGCK2 WT (Entamoeba histolytica HM-1:IMSS) (protein)
chain: T1 sequence
notes: full-length, His-tagged (pCold), expressed in E. coli C41(DE3)
As to B1, the Km in data set [1] was 92.06 µM; in data set [2] it was 291± 74.4 μM uM.

B2: human GSK3 (HsGSK3) peptide (peptide)
peptide: GRPRTTSFAESCK
notes: also called human GSK3 peptide substrate; source: synthetic peptide
Turning to B2, the dissociation constant (Kd) (as a rule, the free concentration of one partner at which half of the binding sites on the other are occupied at equilibrium, for simple one-to-one binding) amounted to 0.0848 µM in data set [3], 1080 µM in data set [4], 2.62 µM in data set [5] and 2.38 µM in data set [6].

B3: EhAGCK1 WT (Entamoeba histolytica HM-1:IMSS) (protein)
chain: T2 sequence with A147K, A241D
notes: as for B1
For B3, the Km in data set [2] is 241.7 ±22.2 μM uM; in data set [7], 125.4 µM.
